Data taken from patent publication US20050096290, “5'-and 3'-capped aptamers and uses therefor” (published 2005).

What was measured:
[1] = molecular target: T1, VEGF165 (vascular endothelial growth factor A, 165 isoform) (Homo sapiens, UniProt P15692-4 P15692-4:27-191); assay: competition; competitive ELISA-like plate assay against biotinylated DNA competitor on immobilized VEGF165, chemiluminescence readout; conditions: tags: recombinant human VEGF165, immobilized on 96-well plate; chain copies: 2 inferred
Protocol: (§1) The ability of anti-VEGF aptamers to bind to human vascular endothelial growth factor (VEGF) was determined using a competitive binding ELISA-like assay. In this assay, recombinant VEGF₁₆₅ is bound to the wells of a 96-well plate (Quadra 96 Plus). Following blocking of nonspecific reactive sites on the plate, a matrix of the test aptamer and a biotinylated competitor, the DNA oligonucleotide shown below, were added.
(§2) “X” represent a biotin moiety in the above representation. Both the biotinylated competitor and the test aptamer compete for binding sites on the immobilized VEGF. Following the removal of the unbound biotinylated competitor and unbound test aptamer, the amount of biotinylated competitor remaining is detected using a chemiluminescence reaction. The entire plate was immediately read on a luminometer (Victor 2). The amount of bound biotinylated competitor is inversely related to the amount of bound test aptamer.

[2] = molecular target: T1, VEGF165 (vascular endothelial growth …); assay: competition; biotinylated competitor binds immobilized VEGF165 and is displaced by test aptamer; printed as SEQ ID NO:1 in text but matches listing SEQ 11; conditions: tags: recombinant human VEGF165, immobilized on 96-well plate; chain copies: 2 inferred; label: two 5' biotin moieties (XX)
Protocol: as §1, §2

T1 sequence (P15692 other isoform, or with tags, fused parts or gaps): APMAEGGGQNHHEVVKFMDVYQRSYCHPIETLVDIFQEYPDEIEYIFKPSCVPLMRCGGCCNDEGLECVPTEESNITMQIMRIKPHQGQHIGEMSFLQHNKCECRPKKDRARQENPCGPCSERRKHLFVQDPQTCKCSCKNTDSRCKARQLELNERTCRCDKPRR

B1: Oligonucleotide 1 (5'-5' and 3'-3' inverted dT capped anti-VEGF aptamer) (ssRNA)
RNA: CGGAAUCAGUGAAUGCUUAUACAUCCG
modifications: 2'-F on all C and U; 2'-OMe on all G and on A except A4 and A5 (ribo); 5'-5' inverted dT cap; 3'-3' inverted dT cap
How did the IC50 [1] turn out when B1 was run?
Its IC50 is 3.28 nM.

B2: biotinylated DNA competitor oligonucleotide (ssDNA)
DNA: CCCGTCTTCCAGACAAGAGTGCAGGG
Does B2 bind [2]?
Result: binds
